Test results published in paper doi:10.1101/2024.05.01.592117.

Columns and labels:
[1] = target: 40S small ribosomal subunit (salt-washed, purified) (human) (UniProt P23396); test: fluorescence polarisation
[2] = target: 43S preinitiation complex (40S + eIFs 1, 1A, 5, 3j, eIF2-TC and eIF3) (human) (UniProt P23396); test: fluorescence polarisation
[3] = target: 43S preinitiation complex (40S + eIFs 1, 1A, 5, 3j, eIF2-TC and eIF3) (human) (UniProt P23396); test: native gel or EMSA

Chain of fluorescence-labeled Pdcd4-NTD (FL-Pdcd4-NTD, residues 1-156) (Q53EL6 1-156): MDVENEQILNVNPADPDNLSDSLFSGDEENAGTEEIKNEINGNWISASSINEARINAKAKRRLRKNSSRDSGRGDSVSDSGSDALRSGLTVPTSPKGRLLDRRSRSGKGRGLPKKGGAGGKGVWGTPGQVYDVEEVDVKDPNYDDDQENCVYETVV
Chain of fluorescence-labeled full-length Pdcd4 (FL-Pdcd4) (Q53EL6 whole entry): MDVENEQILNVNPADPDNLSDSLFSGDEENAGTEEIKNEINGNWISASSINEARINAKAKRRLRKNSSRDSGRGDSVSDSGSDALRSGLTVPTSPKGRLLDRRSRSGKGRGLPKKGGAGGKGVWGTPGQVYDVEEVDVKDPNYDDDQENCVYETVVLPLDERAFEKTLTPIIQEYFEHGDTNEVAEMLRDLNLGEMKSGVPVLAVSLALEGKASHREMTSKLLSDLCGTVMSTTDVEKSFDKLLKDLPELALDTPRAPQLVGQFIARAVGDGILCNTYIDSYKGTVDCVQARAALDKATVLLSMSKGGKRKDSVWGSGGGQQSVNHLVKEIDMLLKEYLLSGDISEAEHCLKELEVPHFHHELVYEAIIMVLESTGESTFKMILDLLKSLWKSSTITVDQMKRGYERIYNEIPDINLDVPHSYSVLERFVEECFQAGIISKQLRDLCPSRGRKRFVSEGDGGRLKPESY
Chain of Pdcd4 (programmed cell death 4), wild type, residues 1-469 (Q53EL6 whole entry, the tested form may be a part): as the sequence (Q53EL6 whole entry) above
Chain of Pdcd4-NTD (residues 1-156), unlabeled (Q53EL6 1-156): as the sequence (Q53EL6 1-156) above

| fold reduction in affinity against the 40S alone [1] | fold reduction in affinity against the 40S alone [2] | percent binding compared to the 40S (lane 2) [3] | Substance | Ki [1] |
| --- | --- | --- | --- | --- |
|  |  |  | Pdcd4-NTD (residues 1-156), unlabeled (from UniProt Q53EL6 1-156) (domain or fragment) | 21 nM |
| > 10 fold | > 100 fold | < 20% | fluorescence-labeled Pdcd4-NTD (FL-Pdcd4-NTD, residues 1-156) (from UniProt Q53EL6 1-156) (domain or fragment) |  |
|  |  |  | Pdcd4 (programmed cell death 4), wild type, residues 1-469 (from UniProt Q53EL6 1-469) (natural protein) | 23 nM |
|  |  | < 20% | fluorescence-labeled full-length Pdcd4 (FL-Pdcd4) (from UniProt Q53EL6 1-469) (natural protein) |  |
